Measured values reported in the supplement of paper PMC9112550, “Optimization of the antimicrobial peptide Bac7 by deep mutational scanning” (BMC Biology, 2022).

System: Escherichia coli TOP10
Test: shrunken log2 fold change of peptide-encoding DNA abundance (4.5 h post-induction vs induction); higher = less antimicrobial activity (less host growth inhibition)
Conditions: time post-induction: 4.5 h; library: site-saturation at positions 5, 18, 19, 20
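Note: peptides expressed intracellularly from a pBAD plasmid library in pooled LB shake-flask culture, induced with 0.3% L-arabinose, DNA abundance read by NGS, three biological replicates, DESeq2 with apeglm shrinkage.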

Sequence	shrunken log2 fold change
RRIRGRPPRLPRPRPRPAGGPRP	0.714
RRIRPRPPRLPRPRPRPNWSPRP	0.0504
RRIRNRPPRLPRPRPRPYSVPRP	-0.0155
RRIRWRPPRLPRPRPRPMVNPRP	-0.0548
RRIRWRPPRLPRPRPRPPHDPRP	0.738
RRIRARPPRLPRPRPRPWMQPRP	-0.152
RRIRMRPPRLPRPRPRPAQEPRP	0.0616
RRIRLRPPRLPRPRPRPHPFPRP	0.0808
RRIRQRPPRLPRPRPRPFWIPRP	-0.0587
RRIRCRPPRLPRPRPRPEFIPRP	-0.551
RRIRLRPPRLPRPRPRPDHYPRP	0.101
RRIRHRPPRLPRPRPRPACEPRP	0.0343
RRIRWRPPRLPRPRPRPELYPRP	0.541
RRIRQRPPRLPRPRPRPMWPPRP	0.269
RRIRNRPPRLPRPRPRPKGQPRP	0.0938
RRIRGRPPRLPRPRPRPSPGPRP	0.732
RRIRSRPPRLPRPRPRPEVEPRP	0.112
RRIRPRPPRLPRPRPRPMEHPRP	-0.0171
RRIRARPPRLPRPRPRPHDVPRP	0.0276
RRIRLRPPRLPRPRPRPYSLPRP	-0.0459
RRIRDRPPRLPRPRPRPHLDPRP	-0.131
RRIRIRPPRLPRPRPRPIMYPRP	-0.0494
RRIRTRPPRLPRPRPRPHDCPRP	-0.00088
RRIRTRPPRLPRPRPRPPFCPRP	0.188
RRIRARPPRLPRPRPRPSDFPRP	0.0983

Sequence	shrunken log2 fold change
RRIRPRPPRLPRPRPRPDKPPRP	-0.233
RRIRVRPPRLPRPRPRPNGKPRP	-0.407
RRIRCRPPRLPRPRPRPCNDPRP	-0.173
RRIRARPPRLPRPRPRPMNHPRP	-0.151
RRIRERPPRLPRPRPRPDRCPRP	0.0731
RRIRSRPPRLPRPRPRPKFIPRP	-0.482
RRIRFRPPRLPRPRPRPRWYPRP	-0.351
RRIRNRPPRLPRPRPRPMHLPRP	-0.179
RRIRHRPPRLPRPRPRPWGPPRP	-0.0071
RRIRMRPPRLPRPRPRPNKQPRP	0.0442
RRIRQRPPRLPRPRPRPTWHPRP	0.0897
RRIRMRPPRLPRPRPRPLALPRP	0.0404
RRIRRRPPRLPRPRPRPLGEPRP	0.144
RRIRCRPPRLPRPRPRPLPMPRP	0.074
RRIRIRPPRLPRPRPRPKWIPRP	-0.77
RRIRVRPPRLPRPRPRPSQRPRP	-0.0119
RRIRGRPPRLPRPRPRPRFEPRP	0.881
RRIRNRPPRLPRPRPRPNVTPRP	-0.361
RRIRGRPPRLPRPRPRPTRMPRP	0.571
RRIRTRPPRLPRPRPRPCTIPRP	-0.456
RRIRMRPPRLPRPRPRPYRPPRP	-0.117
RRIRRRPPRLPRPRPRPNKWPRP	0.0315
RRIRARPPRLPRPRPRPSYKPRP	-0.305
RRIRWRPPRLPRPRPRPNIPPRP	-0.476
RRIRCRPPRLPRPRPRPDFFPRP	0.035

Sequence	shrunken log2 fold change
RRIRWRPPRLPRPRPRPINDPRP	-0.222
RRIRWRPPRLPRPRPRPDNIPRP	-0.12
RRIRRRPPRLPRPRPRPWWGPRP	0.288
RRIRHRPPRLPRPRPRPQQQPRP	-0.158
RRIRCRPPRLPRPRPRPGKYPRP	-0.316
RRIRWRPPRLPRPRPRPRYPPRP	0.175
RRIRYRPPRLPRPRPRPILDPRP	-0.253
RRIRFRPPRLPRPRPRPWCMPRP	-0.214
RRIRFRPPRLPRPRPRPKMMPRP	-0.147
RRIRKRPPRLPRPRPRPRICPRP	0.0539
RRIRCRPPRLPRPRPRPPWFPRP	-0.00887
RRIRPRPPRLPRPRPRPIQAPRP	0.144
RRIRHRPPRLPRPRPRPVCKPRP	-0.14
RRIRQRPPRLPRPRPRPCPFPRP	-0.505
RRIRTRPPRLPRPRPRPQLHPRP	0.0211
RRIRLRPPRLPRPRPRPKPNPRP	0.288
RRIRSRPPRLPRPRPRPLKWPRP	0.0381
RRIRTRPPRLPRPRPRPFDCPRP	-0.748
RRIRGRPPRLPRPRPRPCTQPRP	0.196
RRIRQRPPRLPRPRPRPVLGPRP	0.226
RRIRPRPPRLPRPRPRPFDDPRP	-0.189
RRIRWRPPRLPRPRPRPFFIPRP	-0.309
RRIRWRPPRLPRPRPRPQQPPRP	0.383
RRIRLRPPRLPRPRPRPRAVPRP	0.821
RRIRHRPPRLPRPRPRPGASPRP	-0.196

Sequence	shrunken log2 fold change
RRIRFRPPRLPRPRPRPWRDPRP	-0.136
RRIRYRPPRLPRPRPRPWVYPRP	-0.234
RRIRNRPPRLPRPRPRPKSTPRP	-0.271
RRIRMRPPRLPRPRPRPTRTPRP	2.22
RRIRTRPPRLPRPRPRPNYDPRP	-0.493
RRIRSRPPRLPRPRPRPHYEPRP	-0.573
RRIRQRPPRLPRPRPRPNALPRP	0.023
RRIRSRPPRLPRPRPRPSYIPRP	-1.48
RRIRGRPPRLPRPRPRPPFLPRP	0.444
RRIRVRPPRLPRPRPRPFYTPRP	0.508
RRIRMRPPRLPRPRPRPGRSPRP	0.303
RRIRHRPPRLPRPRPRPMVIPRP	-0.0264
RRIRNRPPRLPRPRPRPDMYPRP	-0.00473
RRIRMRPPRLPRPRPRPTGRPRP	1.24
RRIRYRPPRLPRPRPRPDTVPRP	0.019
RRIRERPPRLPRPRPRPGHGPRP	-0.281
RRIRVRPPRLPRPRPRPPGYPRP	0.0333
RRIRLRPPRLPRPRPRPIHCPRP	-0.0842
RRIRNRPPRLPRPRPRPHDQPRP	0.0402
RRIRVRPPRLPRPRPRPCFVPRP	-0.253
RRIRHRPPRLPRPRPRPMPDPRP	-0.276
RRIRPRPPRLPRPRPRPQAFPRP	-0.00213
RRIRLRPPRLPRPRPRPKCHPRP	-0.387
RRIRWRPPRLPRPRPRPIPRPRP	0.0469
RRIRNRPPRLPRPRPRPGGIPRP	-0.109

Sequence	shrunken log2 fold change
RRIRWRPPRLPRPRPRPRVGPRP	0.563
RRIRERPPRLPRPRPRPQFMPRP	0.0848
RRIRERPPRLPRPRPRPRPWPRP	0.298
RRIRRRPPRLPRPRPRPRVGPRP	0.68
RRIRCRPPRLPRPRPRPHNIPRP	-0.898
RRIRHRPPRLPRPRPRPPDQPRP	0.594
RRIRTRPPRLPRPRPRPSFEPRP	-0.328
RRIRPRPPRLPRPRPRPKQGPRP	0.0197
RRIRDRPPRLPRPRPRPHWAPRP	-0.00226
RRIRFRPPRLPRPRPRPDMCPRP	0.124
RRIRYRPPRLPRPRPRPHPGPRP	-0.727
RRIRPRPPRLPRPRPRPTLLPRP	-0.0649
RRIRWRPPRLPRPRPRPGCTPRP	0.194
RRIRPRPPRLPRPRPRPDVCPRP	-0.00807
RRIRMRPPRLPRPRPRPIYLPRP	-0.268
RRIRLRPPRLPRPRPRPVNNPRP	-0.269
RRIRVRPPRLPRPRPRPFIQPRP	-0.449
RRIRMRPPRLPRPRPRPRGGPRP	1.26
RRIRIRPPRLPRPRPRPIMRPRP	0.139
RRIRERPPRLPRPRPRPPWEPRP	0.145
RRIRHRPPRLPRPRPRPGYIPRP	-0.176
RRIRCRPPRLPRPRPRPACIPRP	-0.186
RRIRDRPPRLPRPRPRPRWVPRP	0.263
RRIRQRPPRLPRPRPRPRKCPRP	0.158
RRIRNRPPRLPRPRPRPICVPRP	0.111

Sequence	shrunken log2 fold change
RRIRQRPPRLPRPRPRPRYFPRP	-0.247
RRIRFRPPRLPRPRPRPGERPRP	0.266
RRIRKRPPRLPRPRPRPENQPRP	0.156
RRIRFRPPRLPRPRPRPTACPRP	-0.118
RRIRERPPRLPRPRPRPYKIPRP	-0.266
RRIRTRPPRLPRPRPRPPYHPRP	-0.541
RRIRMRPPRLPRPRPRPFGDPRP	0.0178
RRIRHRPPRLPRPRPRPITHPRP	-0.23
RRIRLRPPRLPRPRPRPKYSPRP	-0.622
RRIRHRPPRLPRPRPRPPQAPRP	0.236
RRIRERPPRLPRPRPRPMVQPRP	0.00276
RRIRERPPRLPRPRPRPRHHPRP	-0.0796
RRIRDRPPRLPRPRPRPKHCPRP	0.0694
RRIRNRPPRLPRPRPRPDTQPRP	-0.149
RRIRFRPPRLPRPRPRPPGNPRP	0.0667
RRIRHRPPRLPRPRPRPCHDPRP	0.0948
RRIRCRPPRLPRPRPRPLIIPRP	-1.07
RRIRKRPPRLPRPRPRPRHWPRP	0.0398
RRIRHRPPRLPRPRPRPRQYPRP	-0.185
RRIRKRPPRLPRPRPRPELNPRP	2.26
RRIRVRPPRLPRPRPRPRISPRP	-0.187
RRIRWRPPRLPRPRPRPLLFPRP	-0.0366
RRIRGRPPRLPRPRPRPTGFPRP	1.23
RRIRCRPPRLPRPRPRPIQAPRP	0.0936
RRIRVRPPRLPRPRPRPPEDPRP	0.425
